Columns and labels:
Assay in all cases: IEDB peptide-MHC binding, purified MHC/competitive/radioactivity; filed as Kd, often an IC50 or EC50 that approximates it; ≥ and ≤ were set here for values at or beyond the usual limits of such assays
HLA-A*02:03 = conditions: source organism: Dengue virus 4 Philippines/H241/1956
HLA-A*68:01 = biological target: HLA-A*68:01
HLA-A*03:01 = biological target: HLA-A*03:01
HLA-A*33:01 = biological target: HLA-A*33:01
HLA-A*11:01 = biological target: HLA-A*11:01
HLA-A*31:01 = biological target: HLA-A*31:01
[1] = source organism: SARS coronavirus Tor2
[2] = source organism: Vaccinia virus WR
[3] = source organism: Mammarenavirus juninense
[4] = source organism: Vaccinia virus Copenhagen

Sequence	Kd (HLA-A*68:01; [2]) [nM]	Kd (HLA-A*03:01; [2]) [nM]	Kd (HLA-A*33:01; [2]) [nM]	Kd (HLA-A*11:01; [2]) [nM]	Kd (HLA-A*31:01; [2]) [nM]	further results
LIASLVMLLV						Kd (HLA-A*02:03): 64.7 nM
KTVQFCDAMR						Kd (HLA-A*68:01; [1]): 90.1 nM; Kd (HLA-A*03:01; [1]): 1790 nM; Kd (HLA-A*33:01; [1]): 1530 nM; Kd (HLA-A*11:01; [1]): 267 nM; Kd (HLA-A*31:01; [1]): 8.65 nM
KIVNGVLSR	2050	328	7030	89.2	1400	
ELYDTSPTK	4.11	10.5	≥ 43500	90.2	≥ 77900	
MTLVPVLEK	5.78	25.3	1330	6.66	97.4	
TLDTMDDMKK	2150	762	≥ 70000	287	≥ 30200	
DFDNLIGVR	10700	≥ 78000	87.1	≥ 77900	8030	
VLNRHAITMY	16800	94.4	≥ 70000	966	≥ 70000	
NKQYIHCFRK						Kd (HLA-A*68:01; [3]): 1500 nM; Kd (HLA-A*03:01; [3]): 973 nM; Kd (HLA-A*33:01; [3]): 17500 nM; Kd (HLA-A*11:01; [3]): 652 nM; Kd (HLA-A*31:01; [3]): 128 nM
TQFNFNGHTY	266	218	16100	965	4060	
DAKNDDWKK	104	8230	2830	3100	≥ 36700	
EQQQSFMPK	131	2120	5470	11.3	5260	
LLRHYYNKR	2520	3020	51.3	833	1.68	
NTIVFGIYK						Kd (HLA-A*68:01; [4]): 1110 nM; Kd (HLA-A*03:01; [4]): ≥ 28900 nM; Kd (HLA-A*33:01; [4]): ≥ 77700 nM; Kd (HLA-A*11:01; [4]): 1080 nM; Kd (HLA-A*31:01; [4]): ≥ 33400 nM
NMRDLIVTFR	11.5	10500	0.566	14800	1.14	
EVGSIRCVKY	1510	≥ 70100	≥ 47800	≥ 69800	≥ 47000	

Source: the Immune Epitope Database (IEDB)
